Data published in the supplement of paper PMC10065799, “High-throughput profiling of sequence recognition by tyrosine kinases and SH2 domains using bacterial peptide display” (eLife, 2023).

What was measured:
[1] = biological target: c-Src SH2; test: SH2 binding enrichment of the phosphorylated peptide, bacterial display (enrichment ratio); higher = better substrate or ligand; peptides without Tyr show the background
[2] = biological target: Grb2 SH2 (UniProt P62993); test: as above
[3] = biological target: SHP2-C SH2; test: as above
[4] = biological target: Fyn (UniProt P06241); test: phosphorylation enrichment, bacterial display (enrichment ratio); higher = better substrate or ligand; peptides without Tyr show the background
[5] = biological target: EPHB2 (UniProt P29323); test: as above
[6] = biological target: EPHB1 (UniProt P54762); test: as above
[7] = system: c-Src; test: as above
[8] = system: Fer (mouse); test: as above
[9] = biological target: Fes (UniProt P07332); test: as above
[10] = biological target: MERTK (UniProt Q12866); test: as above
[11] = biological target: FGFR3 (UniProt P22607); test: as above
[12] = biological target: Hck (UniProt P08631); test: as above
[13] = system: AncSZ; test: as above
[14] = biological target: Jak2 (UniProt O60674); test: as above
[15] = system: c-Abl (mouse); test: as above
[16] = biological target: FGFR1 (UniProt P11362); test: as above
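Throughout, for SH2 binding enrichment of the phosphorylated peptide, bacterial display: peptide library displayed on the E. coli surface as eCPX fusions, selected cells deep-sequenced, score is each peptide's frequency after selection divided by its frequency in the input.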
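Throughout, for phosphorylation enrichment, bacterial display: 11-residue human phosphosite peptides and single-mutation variants displayed on the E. coli surface, counted by deep sequencing, each peptide's frequency after selection divided by its frequency in the unselected input library; frequency after pTyr selection over input frequency; kinase dosed for 20-30% of maximal phosphorylation in three min.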

EPHB1, sequence (P54762 whole entry, looked up): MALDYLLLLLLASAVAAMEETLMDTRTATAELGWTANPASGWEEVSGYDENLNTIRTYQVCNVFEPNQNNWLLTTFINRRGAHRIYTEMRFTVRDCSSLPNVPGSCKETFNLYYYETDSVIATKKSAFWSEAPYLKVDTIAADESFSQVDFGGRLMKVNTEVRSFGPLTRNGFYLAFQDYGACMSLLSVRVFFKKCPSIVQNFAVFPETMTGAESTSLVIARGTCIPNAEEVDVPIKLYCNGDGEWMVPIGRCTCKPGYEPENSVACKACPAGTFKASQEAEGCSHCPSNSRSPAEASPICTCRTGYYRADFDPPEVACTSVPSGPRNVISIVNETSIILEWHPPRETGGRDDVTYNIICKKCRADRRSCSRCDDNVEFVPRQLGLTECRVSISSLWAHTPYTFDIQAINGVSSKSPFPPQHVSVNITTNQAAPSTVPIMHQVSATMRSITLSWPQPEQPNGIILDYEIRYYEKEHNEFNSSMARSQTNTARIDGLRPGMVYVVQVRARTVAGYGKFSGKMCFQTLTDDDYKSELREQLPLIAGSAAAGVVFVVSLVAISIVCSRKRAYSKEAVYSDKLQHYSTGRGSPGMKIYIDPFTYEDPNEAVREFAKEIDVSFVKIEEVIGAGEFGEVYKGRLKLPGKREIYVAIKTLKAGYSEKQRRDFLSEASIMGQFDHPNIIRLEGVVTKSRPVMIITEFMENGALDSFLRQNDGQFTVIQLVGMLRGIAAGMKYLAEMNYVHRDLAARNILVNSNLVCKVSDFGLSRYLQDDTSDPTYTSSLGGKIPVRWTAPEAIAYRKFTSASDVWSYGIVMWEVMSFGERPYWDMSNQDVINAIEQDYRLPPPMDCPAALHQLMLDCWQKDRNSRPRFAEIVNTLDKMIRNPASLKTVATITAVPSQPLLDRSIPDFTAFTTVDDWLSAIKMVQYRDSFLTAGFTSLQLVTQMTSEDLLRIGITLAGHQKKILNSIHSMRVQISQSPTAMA
Fes, sequence (P07332 whole entry, looked up): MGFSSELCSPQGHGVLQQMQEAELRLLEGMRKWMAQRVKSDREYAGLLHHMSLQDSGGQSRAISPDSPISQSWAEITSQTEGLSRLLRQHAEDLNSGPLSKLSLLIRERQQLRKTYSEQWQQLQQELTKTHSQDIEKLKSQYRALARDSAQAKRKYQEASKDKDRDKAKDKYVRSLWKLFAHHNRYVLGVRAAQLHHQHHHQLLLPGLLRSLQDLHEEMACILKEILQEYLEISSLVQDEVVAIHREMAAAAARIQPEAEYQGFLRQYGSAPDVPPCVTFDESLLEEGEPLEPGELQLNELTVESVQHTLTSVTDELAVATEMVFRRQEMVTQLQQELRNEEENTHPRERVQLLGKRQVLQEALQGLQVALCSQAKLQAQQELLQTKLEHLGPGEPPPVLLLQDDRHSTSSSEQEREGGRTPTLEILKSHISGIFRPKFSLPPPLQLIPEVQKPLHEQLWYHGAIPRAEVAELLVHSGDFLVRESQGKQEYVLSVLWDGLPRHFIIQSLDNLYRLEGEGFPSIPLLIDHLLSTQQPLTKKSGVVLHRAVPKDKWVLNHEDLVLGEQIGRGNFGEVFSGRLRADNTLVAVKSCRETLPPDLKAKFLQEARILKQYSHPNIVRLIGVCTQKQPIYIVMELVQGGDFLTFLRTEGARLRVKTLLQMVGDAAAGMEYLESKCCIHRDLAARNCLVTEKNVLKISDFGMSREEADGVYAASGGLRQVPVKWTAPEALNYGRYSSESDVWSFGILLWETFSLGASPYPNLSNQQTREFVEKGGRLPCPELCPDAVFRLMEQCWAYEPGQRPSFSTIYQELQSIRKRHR
FGFR3, sequence (P22607 whole entry, looked up): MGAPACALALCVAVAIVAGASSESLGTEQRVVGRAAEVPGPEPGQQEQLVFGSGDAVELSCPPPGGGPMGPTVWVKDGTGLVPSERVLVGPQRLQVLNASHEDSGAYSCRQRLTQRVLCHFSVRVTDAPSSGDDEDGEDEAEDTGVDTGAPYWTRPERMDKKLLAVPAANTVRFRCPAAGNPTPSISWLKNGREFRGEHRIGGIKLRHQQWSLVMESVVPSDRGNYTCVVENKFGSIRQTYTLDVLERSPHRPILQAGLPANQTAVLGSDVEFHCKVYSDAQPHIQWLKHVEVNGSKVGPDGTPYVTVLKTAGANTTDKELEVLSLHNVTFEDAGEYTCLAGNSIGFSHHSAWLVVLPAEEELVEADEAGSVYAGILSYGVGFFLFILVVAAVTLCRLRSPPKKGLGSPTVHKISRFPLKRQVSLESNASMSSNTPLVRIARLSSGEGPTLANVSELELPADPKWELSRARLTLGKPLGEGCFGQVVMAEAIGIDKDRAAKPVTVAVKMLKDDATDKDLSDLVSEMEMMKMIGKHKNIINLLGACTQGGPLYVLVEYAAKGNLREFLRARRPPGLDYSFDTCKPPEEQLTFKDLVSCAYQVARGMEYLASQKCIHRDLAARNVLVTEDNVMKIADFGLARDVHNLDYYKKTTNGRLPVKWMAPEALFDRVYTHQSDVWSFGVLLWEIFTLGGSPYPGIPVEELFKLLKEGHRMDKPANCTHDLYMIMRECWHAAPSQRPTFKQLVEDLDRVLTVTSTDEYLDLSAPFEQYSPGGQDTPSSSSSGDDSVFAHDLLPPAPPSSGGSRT
FGFR1, sequence (P11362 whole entry, looked up, the tested form may be a part): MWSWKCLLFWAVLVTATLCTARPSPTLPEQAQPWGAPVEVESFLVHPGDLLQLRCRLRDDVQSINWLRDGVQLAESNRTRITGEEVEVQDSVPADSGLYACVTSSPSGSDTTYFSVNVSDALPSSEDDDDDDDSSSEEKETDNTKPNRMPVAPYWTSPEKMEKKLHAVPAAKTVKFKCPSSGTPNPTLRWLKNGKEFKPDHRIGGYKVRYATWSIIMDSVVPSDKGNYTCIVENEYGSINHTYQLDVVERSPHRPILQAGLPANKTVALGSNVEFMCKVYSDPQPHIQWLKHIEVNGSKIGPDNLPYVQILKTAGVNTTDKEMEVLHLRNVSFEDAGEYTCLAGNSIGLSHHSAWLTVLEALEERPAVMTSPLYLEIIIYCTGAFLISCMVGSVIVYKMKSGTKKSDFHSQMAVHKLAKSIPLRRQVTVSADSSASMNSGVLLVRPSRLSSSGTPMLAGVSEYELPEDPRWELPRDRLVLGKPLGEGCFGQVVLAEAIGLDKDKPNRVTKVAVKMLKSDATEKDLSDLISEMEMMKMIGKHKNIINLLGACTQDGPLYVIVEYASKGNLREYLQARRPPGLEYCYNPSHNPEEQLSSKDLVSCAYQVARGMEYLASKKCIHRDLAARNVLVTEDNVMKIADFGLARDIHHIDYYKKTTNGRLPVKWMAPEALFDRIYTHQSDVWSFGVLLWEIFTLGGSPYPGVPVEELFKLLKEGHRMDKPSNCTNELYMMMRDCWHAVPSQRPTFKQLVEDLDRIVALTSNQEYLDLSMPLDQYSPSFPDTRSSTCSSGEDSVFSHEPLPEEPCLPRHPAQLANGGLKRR
Hck, sequence (P08631 whole entry, looked up): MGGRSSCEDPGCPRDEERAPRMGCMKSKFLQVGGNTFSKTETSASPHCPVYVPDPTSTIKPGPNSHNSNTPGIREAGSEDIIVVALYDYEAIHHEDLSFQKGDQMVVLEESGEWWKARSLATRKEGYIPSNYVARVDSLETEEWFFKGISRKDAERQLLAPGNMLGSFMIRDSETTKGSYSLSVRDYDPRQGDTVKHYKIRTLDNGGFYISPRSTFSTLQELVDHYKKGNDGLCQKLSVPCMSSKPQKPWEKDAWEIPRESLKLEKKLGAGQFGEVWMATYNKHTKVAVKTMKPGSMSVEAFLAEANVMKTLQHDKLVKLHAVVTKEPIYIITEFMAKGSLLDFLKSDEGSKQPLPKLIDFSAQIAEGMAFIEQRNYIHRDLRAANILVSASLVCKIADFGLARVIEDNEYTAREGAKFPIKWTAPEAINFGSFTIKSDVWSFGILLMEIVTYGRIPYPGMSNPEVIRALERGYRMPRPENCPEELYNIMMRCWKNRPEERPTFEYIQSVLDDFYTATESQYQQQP
EPHB2, sequence (P29323 whole entry, looked up): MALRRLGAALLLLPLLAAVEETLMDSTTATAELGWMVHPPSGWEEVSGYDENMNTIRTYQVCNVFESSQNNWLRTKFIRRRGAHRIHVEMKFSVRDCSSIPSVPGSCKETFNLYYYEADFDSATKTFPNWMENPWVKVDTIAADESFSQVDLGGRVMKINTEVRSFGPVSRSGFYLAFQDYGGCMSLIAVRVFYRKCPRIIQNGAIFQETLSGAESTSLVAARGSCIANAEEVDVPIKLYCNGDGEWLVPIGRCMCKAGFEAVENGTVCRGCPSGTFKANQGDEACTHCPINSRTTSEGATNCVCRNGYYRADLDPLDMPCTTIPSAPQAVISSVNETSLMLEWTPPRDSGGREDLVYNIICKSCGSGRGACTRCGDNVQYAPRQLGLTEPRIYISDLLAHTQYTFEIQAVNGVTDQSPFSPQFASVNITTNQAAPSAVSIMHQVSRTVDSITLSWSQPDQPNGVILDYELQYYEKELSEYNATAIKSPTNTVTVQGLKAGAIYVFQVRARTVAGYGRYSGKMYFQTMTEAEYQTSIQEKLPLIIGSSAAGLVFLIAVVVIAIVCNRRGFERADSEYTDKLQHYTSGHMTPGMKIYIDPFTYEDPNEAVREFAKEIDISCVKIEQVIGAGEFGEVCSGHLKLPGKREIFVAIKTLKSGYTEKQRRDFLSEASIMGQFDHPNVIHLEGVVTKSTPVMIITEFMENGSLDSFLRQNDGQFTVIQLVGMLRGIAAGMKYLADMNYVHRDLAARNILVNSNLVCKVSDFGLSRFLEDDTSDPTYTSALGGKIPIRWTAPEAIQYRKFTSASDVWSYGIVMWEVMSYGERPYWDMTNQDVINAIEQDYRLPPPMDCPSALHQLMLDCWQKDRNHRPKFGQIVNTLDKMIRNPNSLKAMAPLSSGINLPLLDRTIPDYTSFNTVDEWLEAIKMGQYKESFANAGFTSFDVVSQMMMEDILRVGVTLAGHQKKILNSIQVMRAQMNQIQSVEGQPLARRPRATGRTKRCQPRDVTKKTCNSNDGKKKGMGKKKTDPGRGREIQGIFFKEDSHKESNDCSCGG

Sequence	SH2 binding enrichment [1]	SH2 binding enrichment [2]	SH2 binding enrichment [3]	phosphorylation enrichment [4]	phosphorylation enrichment [5]	phosphorylation enrichment [6]	phosphorylation enrichment [7]	phosphorylation enrichment [8]	phosphorylation enrichment [9]	phosphorylation enrichment [10]	phosphorylation enrichment [11]	phosphorylation enrichment [12]	phosphorylation enrichment [13]	phosphorylation enrichment [14]	phosphorylation enrichment [15]	phosphorylation enrichment [16]
CTTIHYNYMCK [TP53_Y234_N239K]	3.07	1.45	1.64	0.482	0.562	0.54	0.371	0.5	0.826	0.456	0.61	0.473	0.736	0.674	0.551	0.547
IPKTWYSAEQF [CD207_Y217]	0.574	0.876	0.914	0.522	3.04	3.19	0.615	0.448	0.939	9.16	0.538	0.542	0.855	0.681	0.526	0.494
KPGVNYYFRVS	0.624	0.755	0.977	0.368	0.739	0.534	0.385	0.483	1.37	0.392	0.7	0.423	1.15	1.16	0.732	0.623
RPSRWYQFRVA [ANOS1_Y259]	0.541	0.771	0.568	1.01	0.717	0.834	0.756	1.03	1.55	0.699	0.887	0.642	1.22	0.894	0.955	0.748
HSDFQYSQRSQ [PKP2_Y168_YF]	0.581	0.99	0.832	0.844	0.782	0.752	0.747	0.733	1.02	0.602	0.608	0.718	0.997	0.952	0.942	0.931
RPYRPYIIRGM [LRP5_Y1531]	0.574	0.759	0.557	0.987	0.842	0.531	0.917	0.536	1.4	0.852	0.845	1.04	0.949	0.826	0.587	0.748
FEELVYETVRV [FSHB_Y76_K72E]	0.514	0.884	0.702	7.8	5.12	4.38	5.16	12.8	6.25	4.67	1.82	6.88	3.82	0.843	11.5	2.21
RPASQYPHQVP [ADAM12_Y895_P893S]	0.53	0.883	0.791	0.61	0.689	0.205	0.459	0.464	0.548	0.419	0.403	0.553	0.533	0.56	0.374	0.476
HAKKNYGNSSV [HDX_Y197]	0.414	1.04	0.69	0.262	0.162	0.316	0.355	0.407	0.409	0.355	0.281	0.387	0.398	0.396	0.508	0.406
GQKVAYGGTGD [ALDH3A1_Y305]	0.48	0.756	0.608	0.349	0.342	0.268	0.371	0.384	0.558	0.412	0.416	0.387	0.582	0.417	0.569	0.354
YTTIHYNYMCN [TP53_Y234_C229Y]	6.95	1	2.47	0.976	0.897	1.81	1.27	2.08	1.16	4.13	3.35	0.917	1.43	1.26	0.92	4.5
RLEGVYRNNID [PTEN_Y46]	0.398	0.948	0.588	0.675	0.578	0.478	0.561	0.849	0.889	0.291	0.703	0.389	0.553	0.751	1.35	0.293
KSLSQYLEMDK [CAGE1_Y438_V435L]	1.4	0.709	0.837	0.445	0.483	0.382	0.4	0.348	0.836	0.446	0.487	0.415	0.793	0.797	0.56	0.545
SRPTQYSSFSC [SPEM2_Y104]	0.857	2.26	2.11	0.627	0.511	0.584	0.7	0.486	0.986	0.619	0.578	0.598	0.764	0.816	0.752	0.557
ALAHKYHGGGG [HBB_Y146]	0.43	0.756	0.63	0.426	0.349	0.333	0.383	0.361	0.578	0.461	0.343	0.417	0.621	0.503	0.534	0.537
